Data taken from US12698507B2, “Methods and compositions for conferring and/or enhancing herbicide tolerance using protoporphyrinogen IX oxidase of various cyanobacteria or variant thereof” (FarmHannong Co., Ltd., priority 2019, dated 2026).
Substitutions are numbered along the chain they refer to. Names and notes keep the numbering of the source.

B1: CyPPO19 A167I + V305L + L327T + F360V: variant of CyPPO19 PPO protein (SEQ ID NO: 1) (protein)
chain: MSEVDVAIVGGGLSGLSLAWRLQQSAPQYSVVLLEASDRLGGNITTQTAEGFVWELGPNSFAPTPALLQLIAEVGLQSELIRGDRHLPRYIYWRGQLYPLQPTRPLALATSNLLSPWGKVRAALGALGFVPPYLGSGDESVNSFFRRHLGQEVAERLVAPFVSGVYIGDPQQLSAAAAFRRIAQLEKLGGGLIAGALHLRRQQAPKPKPPTSVQMRPGELGSFKEGLAALPRAIAQQLKAPIHLQTPVQEITPDPKGGYLLRSGEQTWRARSVVLATPAYQTAELVAPFQPAIARVLATIPYPTLACVVLAYPAGLGRSVRPGFGVTIPRSQGIRTLGTIWSSCLFPQRTPAGWQVFTSVIGGATDPDLASLSEEAIVQQVQQDLNRLLDLPAAKARLLGMKVWRRAIPQYMVGYPEQWQQVTHALSQTPGLFLCSNYAEGVALGDRVEHGNRTAAAVAAYLSGGQP
modifications: Synthetic_PPO of Thermosynechococcus elongatus PKUAC-SCTE542 (comprising GenBank No. CP032152.1)
B2: CyPPO19 V165S + F360T: variant of CyPPO19 PPO protein (SEQ ID NO: 1) (protein)
chain: B1 chain with V165S, I167A, L305V, T327L, V360T
modifications: Synthetic_PPO of Thermosynechococcus elongatus PKUAC-SCTE542 (comprising GenBank No. CP032152.1)
B3: CyPPO19 A167C + F360I: variant of CyPPO19 PPO protein (SEQ ID NO: 1) (protein)
chain: B1 chain with I167C, L305V, T327L, V360I
modifications: Synthetic_PPO of Thermosynechococcus elongatus PKUAC-SCTE542 (comprising GenBank No. CP032152.1)
B4: CyPPO19 V165S + F360L: variant of CyPPO19 PPO protein (SEQ ID NO: 1) (protein)
chain: B1 chain with V165S, I167A, L305V, T327L, V360L
modifications: Synthetic_PPO of Thermosynechococcus elongatus PKUAC-SCTE542 (comprising GenBank No. CP032152.1)
B5: CyPPO19 A167L + V305M + I408R + F360M: variant of CyPPO19 PPO protein (SEQ ID NO: 1) (protein)
chain: B1 chain with I167L, L305M, T327L, V360M, I408R
modifications: Synthetic_PPO of Thermosynechococcus elongatus PKUAC-SCTE542 (comprising GenBank No. CP032152.1)
B6: CyPPO19 A167L + F360T: variant of CyPPO19 PPO protein (SEQ ID NO: 1) (protein)
chain: B1 chain with I167L, L305V, T327L, V360T
modifications: Synthetic_PPO of Thermosynechococcus elongatus PKUAC-SCTE542 (comprising GenBank No. CP032152.1)
B7: CyPPO19 A167L + F360M: variant of CyPPO19 PPO protein (SEQ ID NO: 1) (protein)
chain: B1 chain with I167L, L305V, T327L, V360M
modifications: Synthetic_PPO of Thermosynechococcus elongatus PKUAC-SCTE542 (comprising GenBank No. CP032152.1)
B8: CyPPO19 A167I + F360L: variant of CyPPO19 PPO protein (SEQ ID NO: 1) (protein)
chain: B1 chain with L305V, T327L, V360L
modifications: Synthetic_PPO of Thermosynechococcus elongatus PKUAC-SCTE542 (comprising GenBank No. CP032152.1)
B9: CyPPO19 V305L + L327T + I408W + F360V: variant of CyPPO19 PPO protein (SEQ ID NO: 1); printed 305L in Table 9 (protein)
chain: B1 chain with I167A, I408W
modifications: Synthetic_PPO of Thermosynechococcus elongatus PKUAC-SCTE542 (comprising GenBank No. CP032152.1)

These molecules were tested on PPO-deficient BT3 E. coli (ΔPPO) (assay: PPO-inhibiting herbicide tolerance test of PPO variants in E. coli (growth on herbicide-containing LB agar)). Settings: CyPPO19 variants in BT3 (ΔPPO) E. coli; LB agar with 0 to 2,000 μM herbicide, 37° C., dark, 16-20 hours.
Assay type: cell-based
Summary of the method: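 Transformants were grown to OD600 0.5–1, adjusted to OD600=0.5 and spotted as 10-fold dilutions on LB agar with ampicillin (100 μg/mL) and 0 to 2,000 μM herbicide. Plates were kept at 37° C in the dark for 16-20 hours; growth was scored relative to wild type, one '+' per 10-fold resistance.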
For B1, the “tolerance level relative to wild type, Carfentrazone” value was “+ (‘+’ per each 10-fold resistance)”, the “tolerance level relative to wild type, Flumioxazin” value was “+++++ (until ‘+++++’ as maximal resistance)” and the “tolerance level relative to wild type, Fomesafen” value was “+++ (‘+’ per each 10-fold resistance)”. The “tolerance level relative to wild type, Oxyfluorfen” value was “+++ (‘+’ per each 10-fold resistance)”, the “tolerance level relative to wild type, Saflufenacil” value was “++++ (‘+’ per each 10-fold resistance)” and the “tolerance level relative to wild type, Sulfentrazone” value was “++++ (‘+’ per each 10-fold resistance)”. The “tolerance level relative to wild type, Tiafenacil” value was “+++++ (until ‘+++++’ as maximal resistance)”.
In the case of B2, the “tolerance level relative to wild type, Carfentrazone” value is reported as “+ (‘+’ per each 10-fold resistance)”, the “tolerance level relative to wild type, Flumioxazin” value is reported as “+++ (‘+’ per each 10-fold resistance)” and the “tolerance level relative to wild type, Fomesafen” value is reported as “+ (‘+’ per each 10-fold resistance)”. For the same molecule, the “tolerance level relative to wild type, Oxyfluorfen” value was “+ (‘+’ per each 10-fold resistance)”, the “tolerance level relative to wild type, Saflufenacil” value was “+++ (‘+’ per each 10-fold resistance)” and the “tolerance level relative to wild type, Sulfentrazone” value was “++ (‘+’ per each 10-fold resistance)”. The “tolerance level relative to wild type, Tiafenacil” value was “++++ (‘+’ per each 10-fold resistance)”.
For B3, the “tolerance level relative to wild type, Carfentrazone” value was “+ (‘+’ per each 10-fold resistance)”, the “tolerance level relative to wild type, Flumioxazin” value was “++++ (‘+’ per each 10-fold resistance)” and the “tolerance level relative to wild type, Fomesafen” value was “+ (‘+’ per each 10-fold resistance)”. For the same molecule, the “tolerance level relative to wild type, Oxyfluorfen” value was “+ (‘+’ per each 10-fold resistance)”, the “tolerance level relative to wild type, Saflufenacil” value was “+++ (‘+’ per each 10-fold resistance)” and the “tolerance level relative to wild type, Sulfentrazone” value was “++ (‘+’ per each 10-fold resistance)”. For the same molecule, the “tolerance level relative to wild type, Tiafenacil” value was “++++ (‘+’ per each 10-fold resistance)”.
In the case of B4, the “tolerance level relative to wild type, Carfentrazone” value is reported as “+ (‘+’ per each 10-fold resistance)”, the “tolerance level relative to wild type, Flumioxazin” value is reported as “++++ (‘+’ per each 10-fold resistance)” and the “tolerance level relative to wild type, Fomesafen” value is reported as “++ (‘+’ per each 10-fold resistance)”. The “tolerance level relative to wild type, Oxyfluorfen” value was “++ (‘+’ per each 10-fold resistance)”, the “tolerance level relative to wild type, Saflufenacil” value was “++++ (‘+’ per each 10-fold resistance)” and the “tolerance level relative to wild type, Sulfentrazone” value was “+++ (‘+’ per each 10-fold resistance)”. The “tolerance level relative to wild type, Tiafenacil” value was “++++ (‘+’ per each 10-fold resistance)”.
For B5, the “tolerance level relative to wild type, Carfentrazone” value was “+ (‘+’ per each 10-fold resistance)”, the “tolerance level relative to wild type, Flumioxazin” value was “+++++ (until ‘+++++’ as maximal resistance)” and the “tolerance level relative to wild type, Fomesafen” value was “+++ (‘+’ per each 10-fold resistance)”. For the same molecule, the “tolerance level relative to wild type, Oxyfluorfen” value was “+++ (‘+’ per each 10-fold resistance)”, the “tolerance level relative to wild type, Saflufenacil” value was “+++++ (until ‘+++++’ as maximal resistance)” and the “tolerance level relative to wild type, Sulfentrazone” value was “+++++ (until ‘+++++’ as maximal resistance)”. For the same molecule, the “tolerance level relative to wild type, Tiafenacil” value was “+++++ (until ‘+++++’ as maximal resistance)”.
With B6 the “tolerance level relative to wild type, Carfentrazone” value was “+ (‘+’ per each 10-fold resistance)”, the “tolerance level relative to wild type, Flumioxazin” value was “+++ (‘+’ per each 10-fold resistance)” and the “tolerance level relative to wild type, Fomesafen” value was “+ (‘+’ per each 10-fold resistance)”. For the same molecule, the “tolerance level relative to wild type, Oxyfluorfen” value was “+ (‘+’ per each 10-fold resistance)”, the “tolerance level relative to wild type, Saflufenacil” value was “+++ (‘+’ per each 10-fold resistance)” and the “tolerance level relative to wild type, Sulfentrazone” value was “++ (‘+’ per each 10-fold resistance)”. The “tolerance level relative to wild type, Tiafenacil” value was “+++ (‘+’ per each 10-fold resistance)”.
For B7, the “tolerance level relative to wild type, Carfentrazone” value was “+ (‘+’ per each 10-fold resistance)”, the “tolerance level relative to wild type, Flumioxazin” value was “++++ (‘+’ per each 10-fold resistance)” and the “tolerance level relative to wild type, Fomesafen” value was “++ (‘+’ per each 10-fold resistance)”. For the same molecule, the “tolerance level relative to wild type, Oxyfluorfen” value was “+ (‘+’ per each 10-fold resistance)”, the “tolerance level relative to wild type, Saflufenacil” value was “++++ (‘+’ per each 10-fold resistance)” and the “tolerance level relative to wild type, Sulfentrazone” value was “++ (‘+’ per each 10-fold resistance)”. For the same molecule, the “tolerance level relative to wild type, Tiafenacil” value was “++++ (‘+’ per each 10-fold resistance)”.
B8 was tested, and the “tolerance level relative to wild type, Carfentrazone” value was “+ (‘+’ per each 10-fold resistance)”, the “tolerance level relative to wild type, Flumioxazin” value was “+++ (‘+’ per each 10-fold resistance)” and the “tolerance level relative to wild type, Fomesafen” value was “+ (‘+’ per each 10-fold resistance)”. For the same molecule, the “tolerance level relative to wild type, Oxyfluorfen” value was “+ (‘+’ per each 10-fold resistance)”, the “tolerance level relative to wild type, Saflufenacil” value was “+++ (‘+’ per each 10-fold resistance)” and the “tolerance level relative to wild type, Sulfentrazone” value was “+ (‘+’ per each 10-fold resistance)”. The “tolerance level relative to wild type, Tiafenacil” value was “+++ (‘+’ per each 10-fold resistance)”.
In the case of B9, the “tolerance level relative to wild type, Carfentrazone” value is reported as “+ (‘+’ per each 10-fold resistance)”, the “tolerance level relative to wild type, Flumioxazin” value is reported as “+++++ (until ‘+++++’ as maximal resistance)” and the “tolerance level relative to wild type, Fomesafen” value is reported as “+++ (‘+’ per each 10-fold resistance)”. The “tolerance level relative to wild type, Oxyfluorfen” value was “+++ (‘+’ per each 10-fold resistance)”, the “tolerance level relative to wild type, Saflufenacil” value was “+++++ (until ‘+++++’ as maximal resistance)” and the “tolerance level relative to wild type, Sulfentrazone” value was “+++++ (until ‘+++++’ as maximal resistance)”. The “tolerance level relative to wild type, Tiafenacil” value was “+++++ (until ‘+++++’ as maximal resistance)”.
